Km data for three proteins are collected here from ChEMBL document CHEMBL3085760, “Novel polyamine analogues: from substrates towards potential inhibitors of monoamine oxidases” (Eur J Med Chem, 2013).

Substrate in data set [1]: NCCCCCCCCCCCCNCc1cccs1
Kind of data set: (§1) Activity at recombinant human VAP-1 assessed as hydrogen peroxide generation rate preincubated for 30 mins by Amplex Red assay.

Substrate in data set [2]: NCCCCCCCCNCCCNCc1cccs1
Described as §1.

Substrate in data set [3]: NCCCCCCCCCCCCNCc1ccccc1
Described as §1.

Substrate in data set [4]: NCCCOCCCCOCCCNCc1cccs1
Described as §1.

Substrate in data set [5]: CN(CCCCCCCCCCCCN)Cc1ccccc1
The data set is described as §1.

Substrate in data set [6]: NCCCCCCCCCCCCNCc1cccs1
Kind of data set: (§2) Activity at recombinant human MAO-A expressed in baculovirus infected BT1 cells assessed as hydrogen peroxide generation rate preincubated for 30 mins by Amplex Red assay.

Substrate in data set [7]: NCCCCCCCCCCCCNCc1ccccc1
The description is as §2.

Substrate in data set [8]: CN(CCCCCCCCCCCCN)Cc1ccccc1
The data set is described as §2.

Substrate in data set [9]: NCCCCCCCCCCCCNCc1cccs1
The data set is described as follows: (§3) Activity at recombinant human MAO-B expressed in baculovirus infected BT1 cells assessed as hydrogen peroxide generation rate preincubated for 30 mins by Amplex Red assay.

Substrate in data set [10]: NCCCCCCCCCCCCNCc1ccccc1
The description is as §3.

Substrate in data set [11]: NCCCOCCCCOCCCNCc1cccs1
The description is as §3.

Substrate in data set [12]: CN(CCCCCCCCCCCCN)Cc1ccccc1
The description is as §3.

Broadly, the Km is the substrate concentration at which the rate is half of its maximum.

B1: Amine oxidase [copper-containing] 3 (Homo sapiens), Q16853 (protein)
chain: MNQKTILVLLILAVITIFALVCVLLVGRGGDGGEPSQLPHCPSVSPSAQPWTHPGQSQLFADLSREELTAVMRFLTQRLGPGLVDAAQARPSDNCVFSVELQLPPKAAALAHLDRGSPPPAREALAIVFFGRQPQPNVSELVVGPLPHPSYMRDVTVERHGGPLPYHRRPVLFQEYLDIDQMIFNRELPQASGLLHHCCFYKHRGRNLVTMTTAPRGLQSGDRATWFGLYYNISGAGFFLHHVGLELLVNHKALDPARWTIQKVFYQGRYYDSLAQLEAQFEAGLVNVVLIPDNGTGGSWSLKSPVPPGPAPPLQFYPQGPRFSVQGSRVASSLWTFSFGLGAFSGPRIFDVRFQGERLVYEISLQEALAIYGGNSPAAMTTRYVDGGFGMGKYTTPLTRGVDCPYLATYVDWHFLLESQAPKTIRDAFCVFEQNQGLPLRRHHSDLYSHYFGGLAETVLVVRSMSTLLNYDYVWDTVFHPSGAIEIRFYATGYISSAFLFGATGKYGNQVSEHTLGTVHTHSAHFKVDLDVAGLENWVWAEDMVFVPMAVPWSPEHQLQRLQVTRKLLEMEEQAAFLVGSATPRYLYLASNHSNKWGHPRGYRIQMLSFAGEPLPQNSSMARGFSWERYQLAVTQRKEEEPSSSSVFNQNDPWAPTVDFSDFINNETIAGKDLVAWVTAGFLHIPHAEDIPNTVTVGNGVGFFLRPYNFFDEDPSFYSADSIYFRGDQDAGACEVNPLACLPQAAACAPDLPAFSHGGFSHN
Turning to B1, the Km was 11 µM in data set [1]; 1730 µM in data set [2]; 5 µM in data set [3]; 350 µM in data set [4]; 9 µM in data set [5].

B2: Amine oxidase [flavin-containing] A (Homo sapiens) (protein)
chain: MENQEKASIAGHMFDVVVIGGGISGLSAAKLLTEYGVSVLVLEARDRVGGRTYTIRNEHVDYVDVGGAYVGPTQNRILRLSKELGIETYKVNVSERLVQYVKGKTYPFRGAFPPVWNPIAYLDYNNLWRTIDNMGKEIPTDAPWEAQHADKWDKMTMKELIDKICWTKTARRFAYLFVNINVTSEPHEVSALWFLWYVKQCGGTTRIFSVTNGGQERKFVGGSGQVSERIMDLLGDQVKLNHPVTHVDQSSDNIIIETLNHEHYECKYVINAIPPTLTAKIHFRPELPAERNQLIQRLPMGAVIKCMMYYKEAFWKKKDYCGCMIIEDEDAPISITLDDTKPDGSLPAIMGFILARKADRLAKLHKEIRKKKICELYAKVLGSQEALHPVHYEEKNWCEEQYSGGCYTAYFPPGIMTQYGRVIRQPVGRIFFAGTETATKWSGYMEGAVEAGERAAREVLNGLGKVTEKDIWVQEPESKDVPAVEITHTFWERNLPSVSGLLKIIGFSTSVTALGFVLYKYKLLPRS
Regarding B2, the Km in [6] amounted to 80 µM; in data set [7] it was 43 µM; in [8], 44 µM.

B3: Amine oxidase [flavin-containing] B (Homo sapiens) (protein)
chain: MSNKCDVVVVGGGISGMAAAKLLHDSGLNVVVLEARDRVGGRTYTLRNQKVKYVDLGGSYVGPTQNRILRLAKELGLETYKVNEVERLIHHVKGKSYPFRGPFPPVWNPITYLDHNNFWRTMDDMGREIPSDAPWKAPLAEEWDNMTMKELLDKLCWTESAKQLATLFVNLCVTAETHEVSALWFLWYVKQCGGTTRIISTTNGGQERKFVGGSGQVSERIMDLLGDRVKLERPVIYIDQTRENVLVETLNHEMYEAKYVISAIPPTLGMKIHFNPPLPMMRNQMITRVPLGSVIKCIVYYKEPFWRKKDYCGTMIIDGEEAPVAYTLDDTKPEGNYAAIMGFILAHKARKLARLTKEERLKKLCELYAKVLGSLEALEPVHYEEKNWCEEQYSGGCYTTYFPPGILTQYGRVLRQPVDRIYFAGTETATHWSGYMEGAVEAGERAAREILHAMGKIPEDEIWQSEPESVDVPAQPITTTFLERHLPSVPGLLRLIGLTTIFSATALGFLAHKRGLLVRV
As to B3, the Km in data set [9] was 18 µM; in data set [10], 50 µM; in data set [11], 401 µM; in [12] it was 12 µM.
